The values that follow are results of earlier work, collected in publication PMC11170211.

The subject of this data set is Asp102. Kind of data set: NMR.

With “alpha-lytic protease (not stated in the article (described only as bacterial); Lysobacter enzymogenes from outside knowledge)”, the pKa result was “below 1.5”.
